This test has as its target Heavy meromyosin (HMM). Briefly: far-Western, overlay or dot blot.

B1: GST-tagged NH2-terminal region of slow myosin binding protein-C (Pro/Ala-rich motif, Ig C1 and M-motif), Y247H (domain or fragment)
chain: MPEPTKKEENEVPAPAPPPEEPSKEKEAGTTPAKDEEEVSPPSALPPGLGSRALERKDSDWTLVETPPGEEQAKQNANSQLSILFIEKPQGGTVKVGEDITFIAKVKAEDLLRKPTIKWFKGKWMDLASKAGKHLQLKETFERHSRVYTFEMQIIKAKDNFAGNYRCEVTYKDKFDSCSFDLEVHESTGTTPNIDIRSAFKRSGEGQEDAGELDFSGLLKRREVKQQEEEPQVDVWELLKNAKPSEHEKIAFQYGITDLRGMLKRLKRMRREEKKSAAFAKILD
The molecule B1 registered a fold binding against wild type of 2 fold.

B2: GST-tagged NH2-terminal region of slow myosin binding protein-C (Pro/Ala-rich motif, Ig C1 and M-motif), E248K (domain or fragment)
chain: MPEPTKKEENEVPAPAPPPEEPSKEKEAGTTPAKDEEEVSPPSALPPGLGSRALERKDSDWTLVETPPGEEQAKQNANSQLSILFIEKPQGGTVKVGEDITFIAKVKAEDLLRKPTIKWFKGKWMDLASKAGKHLQLKETFERHSRVYTFEMQIIKAKDNFAGNYRCEVTYKDKFDSCSFDLEVHESTGTTPNIDIRSAFKRSGEGQEDAGELDFSGLLKRREVKQQEEEPQVDVWELLKNAKPSEYKKIAFQYGITDLRGMLKRLKRMRREEKKSAAFAKILD
As to B2, the fold binding against wild type was 3.5 fold.

These data come from PMC6685440.
